Consider 84 variants from the RNAGym collection of RNA variant scans (doi:10.1073/pnas.2313332121).

B1: TPR t1 (parent)
chain: GACCAAUCUGCCCUCAGAGCUCGAGAACAUCUUCGGAUGCAGAGGAGGCAGGCUUCGGUGGCGCGAUAGCGCCAACGUCCUCAACCUCCAAUGCAUCCCACCACAUGAUGAUGCCUGAAGAGCCUUGGUUUUUUG

The variants in the series derive from B1. Briefly: polymerase ribozyme fitness, log enrichment relative to wild type (log ratio); higher = more active; in vitro selection for triplet polymerase activity. An outline of the steps: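 Mutant libraries of each subunit of a heterodimeric triplet polymerase ribozyme were built by PCR and transcribed. Each library went through one round of in vitro selection in triplicate: annealing with biotinylated primer, partner subunit and triplets, frozen incubation at −7 °C, gel excision of extended constructs, streptavidin-bead capture and RT-PCR. Input and output libraries were Illumina-sequenced; only genotypes with ≥10 input reads and ≥1 read per output were kept. Fitness is log2(genotype enrichment/wild-type enrichment), using inverse-variance-weighted replicate averages.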
In the case of C3A C123A, the “polymerase ribozyme fitness (log ratio)” value is -1.18.

With C3A C123G, the “polymerase ribozyme fitness (log ratio)” value came to 0.176.

For C3A C123U, the “polymerase ribozyme fitness (log ratio)” value was -1.48.

Take C3A C34U C79U C114A C124G G128U: the “polymerase ribozyme fitness (log ratio)” value is -4.76.

Turning to C3G C13A A95C, the “polymerase ribozyme fitness (log ratio)” value is -4.35.

C3G C62U G93U C98U G128C: the “polymerase ribozyme fitness (log ratio)” value was -2.79.

For C3A U7G G10A C49G C104U G110C C124U, the “polymerase ribozyme fitness (log ratio)” value was -4.49.

As to C3U C104U, the “polymerase ribozyme fitness (log ratio)” value is -0.0507.

As to C3U C104A, the “polymerase ribozyme fitness (log ratio)” value was -2.21.

With C3G A27U G52A C72U U129A, the “polymerase ribozyme fitness (log ratio)” value is -4.63.

With C3U A37G C49G G69A C73U, the “polymerase ribozyme fitness (log ratio)” value was -3.7.

For C3U C70U U78G U87A, the “polymerase ribozyme fitness (log ratio)” value is -1.1.

On to C3U A74U C101U G113A C123G, for which the “polymerase ribozyme fitness (log ratio)” value is -1.18.

Consider C3U C49A A84C C104U G120U, for which the “polymerase ribozyme fitness (log ratio)” value was -0.46.

For C3G C8G G117A G120A G135U, the “polymerase ribozyme fitness (log ratio)” value was -1.6.

As to C3G C97G, the “polymerase ribozyme fitness (log ratio)” value was -5.54.

Regarding C3U C12A U21C G36A G63U, the “polymerase ribozyme fitness (log ratio)” value was -3.34.

As for C3A U9G C98U, the “polymerase ribozyme fitness (log ratio)” value is -1.51.

On to C3U A46C C56U A121U, for which the “polymerase ribozyme fitness (log ratio)” value stood at 1.54.

Take C3A U21C U96C C124G: the “polymerase ribozyme fitness (log ratio)” value came to 0.974.

For the variant C3G C70U, the “polymerase ribozyme fitness (log ratio)” value was -2.07.

In the case of C3A G48A A84G, the “polymerase ribozyme fitness (log ratio)” value was -1.29.

In the case of C3G C40G A121G U130G, the “polymerase ribozyme fitness (log ratio)” value stood at 0.237.

As for C3U C31G G120C, the “polymerase ribozyme fitness (log ratio)” value was -6.61.

As for C3G A5U G60C A90G, the “polymerase ribozyme fitness (log ratio)” value was -1.39.

For the variant C3U A84G G120A, the “polymerase ribozyme fitness (log ratio)” value is -0.608.

As for C3G G128U, the “polymerase ribozyme fitness (log ratio)” value was -1.24.

In the case of C3A C56A G135U, the “polymerase ribozyme fitness (log ratio)” value is -2.75.

As to C3U C15U G63A C101A, the “polymerase ribozyme fitness (log ratio)” value was -3.66.

As to C3U C86G, the “polymerase ribozyme fitness (log ratio)” value was -2.21.

For C3G C11A C12A, the “polymerase ribozyme fitness (log ratio)” value was -3.85.

Turning to C3A G69U G71A A75U A103U C124G, the “polymerase ribozyme fitness (log ratio)” value was -4.96.

C3A C102U A121G: the “polymerase ribozyme fitness (log ratio)” value is -0.526.

As to C3U C13U A37C C70A, the “polymerase ribozyme fitness (log ratio)” value was -1.1.

For C3A A43G, the “polymerase ribozyme fitness (log ratio)” value was -3.31.

On to C3U G10A, for which the “polymerase ribozyme fitness (log ratio)” value turned out to be 0.634.

For C3U C49A U92A G113A, the “polymerase ribozyme fitness (log ratio)” value is -2.63.

C3A A37U: the “polymerase ribozyme fitness (log ratio)” value is -2.19.

Consider C3U A105U, for which the “polymerase ribozyme fitness (log ratio)” value is -1.94.

Consider C3G A27G C53U C72G C79A C98G U116C, for which the “polymerase ribozyme fitness (log ratio)” value is -6.51.

Take C3U C94G C114A U125A: the “polymerase ribozyme fitness (log ratio)” value was -4.28.

Take C3U C34G G63U: the “polymerase ribozyme fitness (log ratio)” value was -6.26.

Take C3A C34A G45C C114U: the “polymerase ribozyme fitness (log ratio)” value is -6.33.

As to C3A C64G C76U G110C, the “polymerase ribozyme fitness (log ratio)” value is -6.8.

C3G U78A U96A C123G U131C: the “polymerase ribozyme fitness (log ratio)” value was -0.54.

C3U A37C G122A: the “polymerase ribozyme fitness (log ratio)” value was -2.49.

On to C3A G61U, for which the “polymerase ribozyme fitness (log ratio)” value is -1.07.

Regarding C3A C70U, the “polymerase ribozyme fitness (log ratio)” value was -1.64.

Regarding C3U C13A, the “polymerase ribozyme fitness (log ratio)” value was -1.28.

For C3A G93A A95G, the “polymerase ribozyme fitness (log ratio)” value is -2.11.

As to C3A C20U C101A A105C C114U U131G, the “polymerase ribozyme fitness (log ratio)” value is -2.47.

Consider C3G G42A C56G U106C G113U A121U, for which the “polymerase ribozyme fitness (log ratio)” value was -4.31.

Turning to C3U C40U, the “polymerase ribozyme fitness (log ratio)” value is -1.92.

C3A C72U: the “polymerase ribozyme fitness (log ratio)” value was -1.75.

With C3A G51A, the “polymerase ribozyme fitness (log ratio)” value was -4.19.

Take C3A A43G C94G C114U: the “polymerase ribozyme fitness (log ratio)” value was -3.66.

With C3U C22G, the “polymerase ribozyme fitness (log ratio)” value is -3.12.

With C3U C22U, the “polymerase ribozyme fitness (log ratio)” value is -3.6.

As for C3A C72A C88G U92G G127U, the “polymerase ribozyme fitness (log ratio)” value is -2.7.

As for A2U U106G, the “polymerase ribozyme fitness (log ratio)” value was -4.83.

Consider C3A G57U A75C C85G U112A C123U, for which the “polymerase ribozyme fitness (log ratio)” value is -1.77.

On to C3U C11U G48A G117C C123G U129C U133C, for which the “polymerase ribozyme fitness (log ratio)” value is -2.05.

Take C3U C101A G117U G135U: the “polymerase ribozyme fitness (log ratio)” value was -4.63.

For A2U U130C, the “polymerase ribozyme fitness (log ratio)” value was -0.66.

As to C3A U106G G113U, the “polymerase ribozyme fitness (log ratio)” value was -6.02.

For the variant C3A U21A G120C, the “polymerase ribozyme fitness (log ratio)” value was -1.39.

Regarding C3U C13A G61A C98U, the “polymerase ribozyme fitness (log ratio)” value is -3.6.

Take C3U C11G U21A U129A: the “polymerase ribozyme fitness (log ratio)” value was -0.924.

Take C3U C15G C72A: the “polymerase ribozyme fitness (log ratio)” value is -3.04.

In the case of C3U C102U C114G C124G, the “polymerase ribozyme fitness (log ratio)” value was -4.14.

Consider C3A A41C C80U C123A, for which the “polymerase ribozyme fitness (log ratio)” value was -1.77.

On to C3U C8A G57U G77U C79U A83C C89U C101G, for which the “polymerase ribozyme fitness (log ratio)” value is -3.64.

With C3G A5C G48U U54C U92G, the “polymerase ribozyme fitness (log ratio)” value was -4.45.

As to C3U C86U C101G, the “polymerase ribozyme fitness (log ratio)” value was -1.68.

With C3A U38G A103C A118G C123G, the “polymerase ribozyme fitness (log ratio)” value was -6.41.

Consider C3U A27U G61U, for which the “polymerase ribozyme fitness (log ratio)” value is -2.61.

For the variant C3U A27U G61A, the “polymerase ribozyme fitness (log ratio)” value was -3.78.

C3G G19A A29U G48C C72G U106A G110C C114G: the “polymerase ribozyme fitness (log ratio)” value was -7.4.

In the case of C3A U133A, the “polymerase ribozyme fitness (log ratio)” value is -1.44.

For C3G G113A, the “polymerase ribozyme fitness (log ratio)” value is -3.52.

C3U C82A: the “polymerase ribozyme fitness (log ratio)” value was -0.533.

On to C3A G36A G71C C123G, for which the “polymerase ribozyme fitness (log ratio)” value is -1.87.

On to C3A G52A C70U C104A C124G, for which the “polymerase ribozyme fitness (log ratio)” value is -2.12.

C3A C102U: the “polymerase ribozyme fitness (log ratio)” value is -2.94.
